# The Human Domainome abundance scans (Beltran et al. 2025)
# ± gives the uncertainty stated by the source.
# B1: Death-inducer obliterator 1, residues 263 to 321; numbered along this chain, Q9BTC0 (parent)
# chain: GYDPNALYCICRQPHNNRFMICCDRCEEWFHGDCVGISEARGRLLERNGEDYICPNCTI
# Variants of: B1
# Experiment: abundance fitness (aPCA) (normalised: wild type 0, dead -1); higher = more abundant; growth selection in yeast, the domain comes from the species named
# Conditions: Homo sapiens
row,Variant,abundance fitness
1,GYDPNALYCICRQPHNNRFMICCDRCEEWFHGDCVGISEARGRLLKRNGEDYICPNCTI [E46K],0.079 ± 0.088
2,GYDPNALYCICRQPHNNRFMICCDRCEEWFHGDCVGISEARGRLLARNGEDYICPNCTI [E46A],0.163 ± 0.12
3,GYDPNALYCICRQPHNNRFMICCDRCEEWFHGDCVGISEARGRLLQRNGEDYICPNCTI [E46Q],-0.218 ± 0.21
4,GYDPNALYCICRQPHNNRFMICCDRCEEWFHGDCVGISEARGRLLRRNGEDYICPNCTI [E46R],0.021 ± 0.066
5,GYDPNALYCICRQPHNNRFMICCDRCEEWFHGDCVGISEARGRLLFRNGEDYICPNCTI [E46F],-0.16 ± 0.1
6,GYDPNALYCICRQPHNNRFMICCDRCEEWFHGDCVGISEARGRLLHRNGEDYICPNCTI [E46H],-0.663 ± 0.45
7,GYDPNALYCICRQPHNNRFMICCDRCEEWFHGDCVGISEARGRLLNRNGEDYICPNCTI [E46N],-0.009 ± 0.19
8,GYDPNALYCICRQPHNNRFMICCDRCEEWFHGDCVGISEARGRLLCRNGEDYICPNCTI [E46C],0.155 ± 0.13
9,GYDPNALYCICRQPHNNRFMICCDRCEEWFHGDCVGISEARGRLLSRNGEDYICPNCTI [E46S],-0.064 ± 0.09
10,GYDPNALYCICRQPHNNRFMICCDRCEEWFHGDCVGISEARGRLLERNQEDYICPNCTI [G49Q],-0.145 ± 0.22
11,GYDPNALYCICRQPHNNRFMICCDRCEEWFHGDCVGISEARGRLLERNHEDYICPNCTI [G49H],0.1 ± 0.11
12,GYDPNALYCICRQPHNNRFMICCDRCEEWFHGDCVGISEARGRLLERNMEDYICPNCTI [G49M],-0.002 ± 0.095
13,GYDPNALYCICRQPHNNRFMICCDRCEEWFHGDCVGISEARGRLLERNKEDYICPNCTI [G49K],0.163 ± 0.16
14,GYDPNALYCICRQPHNNRFMICCDRCEEWFHGDCVGISEARGRLLERNWEDYICPNCTI [G49W],-0.462 ± 0.17
15,GYDPNALYCICRQPHNNRFMICCDRCEEWFHGDCVGISEARGRLLERNREDYICPNCTI [G49R],-0.066 ± 0.087
16,GYDPNALYCICRQPHNNRFMICCDRCEEWFHGDCVGISEARGRLLERNLEDYICPNCTI [G49L],-0.089 ± 0.16
17,GYDPNALYCICRQPHNNRFMICCDRCEEWFHGDCVGISEARGRLLERNDEDYICPNCTI [G49D],-0.299 ± 0.18
18,GYDPNALYCICRQPHNNRFMICCDRCEEWFHGDCVGISEARGRLLERNCEDYICPNCTI [G49C],-0.216 ± 0.4
19,GYDPNALYCICRQPHNNRFMICCDRCEEWFHGDCVGISEARGRLLERNYEDYICPNCTI [G49Y],0.01 ± 0.26
20,GYDPNALYCICRQPHNNRFMICCDRCEEWFHGDCVGISEARGRLLERNFEDYICPNCTI [G49F],-0.243 ± 0.17
21,GYDPNALYCICRQPHNNRFMICCDRCEEWFHGDCVGISEARGRLLERNIEDYICPNCTI [G49I],-0.016 ± 0.12
22,GYDPNALYCICRQPHNNRFMICCDRCEEWFHGDCVGISEARGRLLERNEEDYICPNCTI [G49E],0.283 ± 0.13
23,GYDPNALYCICRQPHNNRFMICCDRCEEWFHGDCVGISEARGRLLERNNEDYICPNCTI [G49N],0.11 ± 0.16

row,Variant,abundance fitness
1,GYDPNALYCICRQPHNNRFMICCDRCEEWFHGDCVGISEARGRLLERNVEDYICPNCTI [G49V],-0.199 ± 0.2
2,GYDPNALYCICRQPHNNRFMICCDRCEEWFHGDCVGISEARGRLLERNSEDYICPNCTI [G49S],0.173 ± 0.19
3,GYDPNALYCICRQPHNNRFMICCDRCEEWFHGDCVGISEARGRLLERNAEDYICPNCTI [G49A],0.052 ± 0.11
4,GYDPNALYCICRQPHNNRFMICCDRCEEWFHGDCVGISEARGRLLERNTEDYICPNCTI [G49T],-0.047 ± 0.1
5,GYDPNALYCICRQPHNNRFMICCDRCEEWFHGDCVGISEARGRLLERNGERYICPNCTI [D51R],0.013 ± 0.088
6,GYDPNALYCICRQPHNNRFMICCDRCEEWFHGDCVGISEARGRLLERNGEPYICPNCTI [D51P],-0.289 ± 0.38
7,GYDPNALYCICRQPHNNRFMICCDRCEEWFHGDCVGISEARGRLLERNGEEYICPNCTI [D51E],0.029 ± 0.1
8,GYDPNALYCICRQPHNNRFMICCDRCEEWFHGDCVGISEARGRLLERNGESYICPNCTI [D51S],0.07 ± 0.074
9,GYDPNALYCICRQPHNNRFMICCDRCEEWFHGDCVGISEARGRLLERNGEIYICPNCTI [D51I],-0.135 ± 0.18
10,GYDPNALYCICRQPHNNRFMICCDRCEEWFHGDCVGISEARGRLLERNGEKYICPNCTI [D51K],-0.216 ± 0.34
11,GYDPNALYCICRQPHNNRFMICCDRCEEWFHGDCVGISEARGRLLERNGEYYICPNCTI [D51Y],0.177 ± 0.1
12,GYDPNALYCICRQPHNNRFMICCDRCEEWFHGDCVGISEARGRLLERNGEMYICPNCTI [D51M],-0.367 ± 0.15
13,GYDPNALYCICRQPHNNRFMICCDRCEEWFHGDCVGISEARGRLLERNGEHYICPNCTI [D51H],-0.169 ± 0.15
14,GYDPNALYCICRQPHNNRFMICCDRCEEWFHGDCVGISEARGRLLERNGEQYICPNCTI [D51Q],0.135 ± 0.13
15,GYDPNALYCICRQPHNNRFMICCDRCEEWFHGDCVGISEARGRLLERNGENYICPNCTI [D51N],-0.18 ± 0.12
16,GYDPNALYCICRQPHNNRFMICCDRCEEWFHGDCVGISEARGRLLERNGELYICPNCTI [D51L],-0.332 ± 0.09
17,GYDPNALYCICRQPHNNRFMICCDRCEEWFHGDCVGISEARGRLLERNGEAYICPNCTI [D51A],0.142 ± 0.093
18,GYDPNALYCICRQPHNNRFMICCDRCEEWFHGDCVGISEARGRLLERNGECYICPNCTI [D51C],-0.094 ± 0.12
19,GYDPNALYCICRQPHNNRFMICCDRCEEWFHGDCVGISEARGRLLERNGEWYICPNCTI [D51W],-0.612 ± 0.22
20,GYDPNALYCICRQPHNNRFMICCDRCEEWFHGDCVGISEARGRLLERNGETYICPNCTI [D51T],-0.004 ± 0.11
21,GYDPNALYCICRQPHNNRFMICCDRCEEWFHGDCVGISEARGRLLERNGEGYICPNCTI [D51G],0.088 ± 0.098
22,GYDPNALYCICRQPHNNRFMICCDRCEEWFHGDCVGISEARGRLLERNGEFYICPNCTI [D51F],-0.203 ± 0.25
